T1: Sym-1789 (RSV-G type B central region peptide 145-184) (Respiratory syncytial virus type B, N-terminal biotin)
T1 construct: Synthetic peptide, C-terminally truncated against Sym-1788
T1 peptide: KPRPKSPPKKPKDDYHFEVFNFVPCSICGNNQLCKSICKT

T2: Sym-1705 (RSV-G type A central region peptide 145-201) (Respiratory syncytial virus type A, not fully specified; N-terminal biotin)
T2 construct: Synthetic peptide
T2 peptide: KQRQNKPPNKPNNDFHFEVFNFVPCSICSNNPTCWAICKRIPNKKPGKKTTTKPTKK

T3: Sym-1706 (RSV G central conserved domain (CCD) peptide, type A 145-184) (Respiratory syncytial virus type A, N-terminal biotin)
T3 construct: Synthetic peptide, C-terminally truncated against Sym-1705
T3 peptide: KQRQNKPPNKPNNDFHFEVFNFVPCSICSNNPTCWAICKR

T4: Recombinant RSV attachment protein (G protein) corresponding to RSV B/B1 (Respiratory syncytial virus B/B1, UniProt O36633 65-299)
T4 construct: also called RSV Gb; Gb
T4 sequence: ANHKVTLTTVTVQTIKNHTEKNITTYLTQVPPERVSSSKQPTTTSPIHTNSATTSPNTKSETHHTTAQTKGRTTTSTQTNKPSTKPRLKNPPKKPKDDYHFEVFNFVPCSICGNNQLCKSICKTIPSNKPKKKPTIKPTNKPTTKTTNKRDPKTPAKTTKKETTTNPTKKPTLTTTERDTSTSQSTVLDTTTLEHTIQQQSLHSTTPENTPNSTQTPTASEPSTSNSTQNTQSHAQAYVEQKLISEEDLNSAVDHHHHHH

T5: Sym-1788 (RSV-G type B central region peptide 145-201) (Respiratory syncytial virus type B, N-terminal biotin)
T5 construct: Synthetic peptide
T5 peptide: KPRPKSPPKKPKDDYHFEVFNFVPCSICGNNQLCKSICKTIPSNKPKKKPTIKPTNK

T6: G protein of RSV A/Long (ATCC Cat. No. VR-26), on virus (Respiratory syncytial virus A/Long, UniProt P20895 1-298)
T6 sequence (looked up): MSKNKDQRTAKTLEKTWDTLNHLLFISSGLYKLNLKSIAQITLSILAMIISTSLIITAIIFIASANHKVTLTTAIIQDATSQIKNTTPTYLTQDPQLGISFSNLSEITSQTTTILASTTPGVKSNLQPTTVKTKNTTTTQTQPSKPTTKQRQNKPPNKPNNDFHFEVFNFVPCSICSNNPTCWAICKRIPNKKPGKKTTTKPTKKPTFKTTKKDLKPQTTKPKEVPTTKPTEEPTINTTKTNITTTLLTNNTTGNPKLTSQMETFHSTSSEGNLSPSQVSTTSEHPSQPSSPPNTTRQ

B1: CB076.2L (antibody, V domains shown)
VH: QVQLVQSGAEVKKPGSSVKVSCKTSGDTFSNYVVSWVRQAPGQGLEWMGGIIPMFGTTNYAQRFQGRVTISADESTSTAYMEMSSLKSEDTAVYYCARDRYYEVRAGGKVLNTYYYMDVWGKGTTVTVSS
VL: SSELTQDPAVSVALGHTVRITCQGDSLRSYYTNWYQQKPGQAPVLVIFGEDNRPSGIPDRFSGSSSGDTASLTITGTQAEDEADYYCNSRDSSGNLWVFGGGTKLTVL
notes: Tested as human IgG from the pCP9-lambda vector
B2: CB073.1L (antibody, V domains shown)
VH: QVQLVESGGGVVQPGRSLRLSCAASGFTFYNYAVHWVRQAPGKGLEWVAVISHDGVNKDYADSVKGRITLSRDNSKNTVYLQLNSLRPEDTAVYYCARDRSYYFGGSVFHLYFDYWGQGTLVTVSS
VL: QSVLTQPPSVSGAPGQRVIISCTGSSSNIGAGHDVHWYQQLPGTAPRLLIYANTNRPSGVPDRFSASKSGNSASLVITGLQAEDEADYFCQSHDSSLSGVLFGGGTKLTVL
notes: as for B1
B3: CB028.1 (antibody, V domains shown)
VH: QVQLVQSGAEVKKPGASVQVSCKTSGYTFSSYGISWVRQAPGQGPEWMGWISTHIGTTNYAQKLQGRVTMTTDTSTTTAYMELRSLRSDDTAVYYCARDLAKWYCSGDTCFCSGGRCYSDHWGQGTLVTVSS
VL: DIQMTQSPSSLSASVGDRVTITCRASQSINDCLNWYQQKPGQAPKLLISAASNLQSGVPSRFSGSGSETDFTLTISSLQPEDFAAYYCQQSFSTPLTFGGGTKVEIK
notes: Tested as human IgG from the pCP9-kappa vector
B4: CB079.1 (antibody, V domains shown)
VH: EVQLVESGGDLVQPGGSLRLSCSASGFVFTSYSFHWVRQAPGKGLEYVSSVSADGGSTYYADSVRGRFLISRDNSKNTLSLQMSSLRPDDTALYYCVPQPSLLWFGDLRSWGQGTLVTVSS
VL: DIVMTQSPLSLPVTPGEPASISCRSSQSLLHSNGYNYLDWYLQKPGQSPQLLIYLSSNRASGVPDRFSGSGSGTDFTLKISRVEAEDIGIYYCMQSLQTLTFGQGTRLEIK
notes: as for B3
B5: CB072.1L (antibody, V domains shown)
VH: QLQLQESGPGLVKPSETLSLTCTVSGGSISSNIHYWAWIRQTPGKGLEWIGYMFYGGVAFYNPSLKSRVAISVDTSKNQFSLRLTSASAADTAVYYCARVLVASTNWFDPWGQGTLVTVSS
VL: SYVLTQPPSVSVAPGGTARITCGGDNIGTKGVHWYQQKPGQAPVLVMYYNSDRPTGVPERFSGSNSGNTATLTISRLEAGDEADYYCHVWDSSGSDHVEVFGGGTKLTVL
notes: Tested as human IgG from the pCP9-lambda vector; also called CB072.IL
B6: CB047.1 (antibody, V domains shown)
VH: EVQLVESGGGLVQPGGSLRLSCAASGFSFSNYAMSWVRQAPGKGLEWVSDISGSGNSTNFADSVKGRFTISRDNSKNTLYLQMSSLRAEDTAVYYCAKFRVPTYCVNGICYQGLPGFDIWGQGTMVTVSS
VL: DIQMTQSPSSLSASVGDRVTITCQASQDISDYLNWYQQKPGKAPKLLIYDASNLETGVPSRFSASGSGTDFTFTISSLQPEDIATYYCQHYHNLPPLFGGGTKVEIK
notes: as for B3
B7: CB047.2 (antibody, V domains shown)
VH: EVQLVESGGGLVQPGGSLRLSCAASGFNFSNYAMSWVRQAPGKGLEWVSDISSSGKTTNSADSVKGRFTISRDNSKNTLFLQMSSLRADDTAVYYCAKFRVPTYCVNGICYQGLPGFDIWGQGTMVTVSS
VL: DIQMTQSPSSLSASVGDRVTITCQASQDISDYLNWYQQKPGKAPKLLIYDASNLETGVPSRFSASGSGTDFTFTISSLQPEDFATYYCQHYHNLPPLFGGGTKVEIK
notes: as for B3
B8: CB017.5L (antibody, V domains shown)
VH: QVQLVESGGGVVQPGRSLRLSCSASGFTFSVYAMHWVRQAPGQGLEWVAIIWYDGSNKYYADSVKGRFTISRDNSKETLYLQMNSLRVEDTAVYYCARDPIVGHTRDGLDVWGQGTTVTVSS
VL: SYELTQPPSVSVSPGQTARVTCSGDAMAEQYTYWYQQKPGQAPVLIIFKDTERPSGIPERFSGSSSGTTVTLTISGVQTEDEADYYCQSTDSSGTSWVFGGGTKLTVL
notes: as for B1
B9: CB017.3L (antibody, V domains shown)
VH: QVQLVESGGGVVQPGGSLRLSCEASGFMFSVYAIHWVRQAPGKGLEWVAVIWHDGSNKYYADSVKGRFTISRDNSKDTMYLQMKTLRVDDTAVYYCARDPIVGSKTDGMDVWGQGTTVTVSS
VL: SYELTQPPSVSVSPGQTARITCSGDALADQYAYWYQQKPGQAPVMVIFKDNERPSGIPERFSGSSSGTTVTLTVSGVQSEDEADYYCQSVDSSGTYWMFGGGTKLTVL
notes: Tested as human IgG expressed in 293-F cells from the pCP9-lambda vector
B10: CB071.1L (antibody, V domains shown)
VH: QVQLVQSGAEVKKPGSSVRVSCKASGGTFSRYVITWVRQAPGQGLEWMGGSIPIIDTSTYAQKFQDRVTITADKSTSTVYLELSSLRPEDTAIYYCAKVFFFSNSSGPPTEGPAFDVWGQGTMVTVSS
VL: SYELTQPPSVSVSPGQTASITCSGHELGDKYVSWYQQKPGQSPVLLIYQDTNRPAGIPERFSGSNSGSTAFLTISATQAMDEADYYCQAWDNSHVVFGGGTKLTVL
notes: as for B1
B11: CB065.1 (antibody, V domains shown)
VH: QVQLVESGGGVVQPGRSLRLSCAASGFTFSNYGMHWVRQAPGKGLEWVTIISYDESTTLYADSVKGRFTISRDNSKNTVYLQMNSLRPEDTAVYYCARDHFDPSGYFWYFDLWGRGTLVTVSS
VL: DIVMTQSPLSLSVTPGQPASISCKSSQSLLQRDGKTYLYWYLQKPGQSPQLLIYEVSSRFSGVPDRFSGSGSGTDFTLKISRVEAEDVGVYYCMQGIRLPRTFGQGTKVEIK
notes: as for B3

How the values were obtained:
[1] = target: G protein of RSV B/18537 (ATCC Cat. No. VR-1580), on virus (Respiratory syncytial virus B/18537); test: cell-based or functional assay
[2] = target: T1, Sym-1789 (RSV-G type B central region …); test: ELISA, biotinylated peptide on avidin plate
[3] = target: T2, Sym-1705 (RSV-G type A central region …); test: ELISA, biotinylated peptide on avidin plate
[4] = target: T3, Sym-1706 (RSV G central conserved …); test: ELISA, biotinylated peptide on avidin plate
[5] = target: T4, Recombinant RSV attachment protein (G …); test: ELISA, coated recombinant protein
[6] = target: T5, Sym-1788 (RSV-G type B central region …); test: ELISA, biotinylated peptide on avidin plate
[7] = target: T2, Sym-1705 (RSV-G type A central region …); test: ELISA, antibody titrated on biotinylated peptide on avidin plate
[8] = target: T3, Sym-1706 (RSV G central conserved …); test: as above
[9] = target: T2, Sym-1705 (RSV-G type A central region …); test: Octet Red384, streptavidin tips with biotinylated peptide
Description: (§1) Binding of the mAbs to the RSV G peptides was also determined using Streptavidin sensor tips on the Octet Red384 (ForteBio).

[10] = target: T3, Sym-1706 (RSV G central conserved …); test: as above
Description: as §1

[11] = target: T6, G protein of RSV A/Long (ATCC Cat. No. …); test: cell-based or functional assay

Binder	Neutralization IC50 (ng/mL), plaque reduction assay, RSV B/18537 [1] [ng/mL]	binding result [2]	binding result [3]	binding result [4]	binding result [5]	binding result [6]	IC50 [7] [ng/mL]	IC50 [8] [ng/mL]	Binding (Octet) [RU] [9] [RU]	Binding (Octet) [RU] [10] [RU]	Neutralization IC50, plaque reduction assay, RSV A/Long [11] [ng/mL]
B1	5.6	binds	binds	binds	–	–	–	–	–	–	–
B2	2.9	binds	binds	binds	–	–	–	–	–	–	–
B3	16.3	binds	binds	binds	binds	binds	–	–	–	–	–
B4	4.4	binds	binds	binds	binds	binds	–	–	–	–	–
B5	2.7	binds	binds	binds	–	–	–	–	–	–	–
B6	4.7	binds	binds	binds	–	–	–	–	–	–	–
B7	8.9	binds	binds	binds	–	–	–	–	–	–	–
B8	3.8	–	–	–	–	–	~20	~20	3.17	-0.02	3.5
B9	2	–	binds	binds	–	–	–	–	–	–	–
B10	5.4	binds	binds	binds	–	–	–	–	–	–	–
B11	5.1	binds	binds	binds	binds	binds	–	–	–	–	–

Source: patent publication US20160145322A1 (CRUCELL HOLLAND B V, published 2016)
